Laboratory results as given in patent publication US20250059285A1 (ARGENX, published 2025).

How the values were obtained:
human Gal10-His [1] = target: T1, human Gal10-His (human, UniProt Q05315 2-142, limits assumed); test: summary of periplasmic extract screening (BLI or SPR); control
T1 construct: also called hGal10-His; human Gal10-His tagged; not shown: His tag
T1 sequence: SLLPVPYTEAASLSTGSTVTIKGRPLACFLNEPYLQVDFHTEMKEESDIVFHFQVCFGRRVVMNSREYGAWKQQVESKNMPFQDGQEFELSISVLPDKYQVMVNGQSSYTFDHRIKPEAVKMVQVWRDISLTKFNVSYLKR

human Gal10-His [2] = target: T1, human Gal10-His; test: SPR Biacore 3000, purified hFab 20 nM on Gal10-His-coated CM5
human Gal10-His [3] = target: T1, human Gal10-His; test: BLI Octet RED96, Gal10-His captured on anti-Penta-His tips
human Gal10-His [4] = target: T1, human Gal10-His; test: SPR Biacore 3000, control on Gal10-His-coated CM5
Procedure: The off-rate of the remaining 25 clones of the ELISA experiment was determined by SPR on a Biacore 3000 instrument. Periplasmic extracts were injected on a CM5 sensor chip coated with 2500 RU Gal10-His.

[5] = target: T2, cynomolgus Gal10-His (WGS isoform) (cynomolgus); test: SPR Biacore 3000, hFab on captured cynomolgus Gal10-His (WGS); column head prints (M), the text gives nM
T2 construct: also called cynomolgus antigen
Procedure: (§1) The binding properties of the selected clones to human and cynomolgus Gal10 was analyzed via a capture method established on a Biacore 3000 instrument.
(§2) For this purpose, two approaches were used. In the first, two concentrations of the selected clones were applied on cynomolgus (WGS isoform) Gal10-His capture on a CM5 chip coated with a monoclonal anti-His antibody. The second approach involved a serial dilution that was applied on human or cynomolgus (WGS isoform) Gal10-His in the same set-up.

human Gal10-His [6] = target: T1, human Gal10-His; test: SPR Biacore 3000, hFab on captured human Gal10-His; column head prints (M), the text gives nM
Procedure: as §1, §2

[7] = target: T2, cynomolgus Gal10-His (WGS isoform); test: SPR Biacore 3000, hFab on cynomolgus Gal10-His (WGS) captured by anti-His CM5
Procedure: as §1, §2

human Gal10-His [8] = target: T1, human Gal10-His; test: SPR Biacore 3000, hFab on human Gal10-His captured by anti-His CM5
Procedure: as §1, §2

human Gal10-His [9] = target: T1, human Gal10-His; test: SPR Biacore 3000, purified hFab (2 conc.) on Gal10-His captured by anti-His CM5
Procedure: The binding properties of the selected Fab clones to human Gal10 were analyzed via a capture method established on a Biacore 3000 instrument. Two concentrations of the selected Fab clones were tested on human Gal10-His immobilized on a CM5 chip coated with a monoclonal anti-His. As controls, the clone g7B07 and g7B07_N53A were injected at the beginning and the end of the run. Briefly, a CM5 chip was coated with a monoclonal anti-His antibody (4000 RU), then a fixed concentration of the human Gal10-His (25 μg/mL) was captured on the anti-His chip before receiving two concentrations of the clones in the human Fab backbone.

B1: g7B07 (human Fab) (Fab, V domains shown)
VH: EVQLLESGGGLVQPGGSLRLSCAASGFTFRSYDMSWVRQAPGKGLEWVSAIKNGGGITYYADSVKGRFTISRDNSKNTLYLQMNSLRAEDTAVYYCATTHGIGTLGFGSWGQGTLVTVSS
VL: SYELTQPLSVSVALGQTARITCDGNNIGSKSAQWYQQKPGQAPVLVIYADEYRPEGIPERFSGSNSGNTATLTISRAQAGDEADYYCQVWDGSAAVFGGGTQLTVL
notes: Human Fab backbone; their format is not certain; also called g7B07-hFab; germlined 7B07
- kd, fold compared to g7B07 (BLI or SPR) (human Gal10-His [1]): 1 fold
- Fold off-rate compared to g7B07 (human Gal10-His [2]): 1 fold
- koff (human Gal10-His [2]): 0.0069 s⁻¹
- kd fold difference to reference (human Gal10-His [3]): 1 fold
- koff (human Gal10-His [3]): 0.00754 s⁻¹
- Fold off-rate compared to g7B07 (human Gal10-His [4]): 1 fold
- koff (human Gal10-His [4]): 0.00218 s⁻¹
- Kd [5]: 69.5 nM
- Kd (human Gal10-His [6]): 9.08 nM
- Amplitude R0 [7]: 64 RU
- koff [7]: 0.13 s⁻¹
- kon [7]: 1.9e+06 M⁻¹ s⁻¹
- Amplitude R0 (human Gal10-His [8]): 607 RU
- koff (human Gal10-His [8]): 0.006 s⁻¹
- kon (human Gal10-His [8]): 670000 M⁻¹ s⁻¹
- Kd (human Gal10-His [9]): 11.1 nM
- kd-fold drop vs g7B07 (human Gal10-His [9]): 1 fold
- koff (human Gal10-His [9]): 0.0047 s⁻¹
- kon (human Gal10-His [9]): 420000 M⁻¹ s⁻¹
